The values that follow come from US20260226110A1.

The target in the test is single antigen M1 peptide segment of monkeypox virus (monkeypox virus isolate MPXV_USA_2022_MA001) (UniProt M1LBP0).
Sequence of UniProt M1LBP0 (M1LBP0 1-181 limits assumed): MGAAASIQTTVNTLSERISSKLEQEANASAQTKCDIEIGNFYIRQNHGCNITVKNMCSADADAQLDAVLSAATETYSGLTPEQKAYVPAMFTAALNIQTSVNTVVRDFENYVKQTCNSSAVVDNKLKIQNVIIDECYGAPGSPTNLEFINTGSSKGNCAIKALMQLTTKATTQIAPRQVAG

On to neutralizing antibody 7D11, for which the koff was determined as 0.00476 s⁻¹ and the kon came out at 1.44e+06 M⁻¹ s⁻¹.

What is called koff is the rate constant with which the complex falls apart. Low readings indicate a long-lived complex, high ones a short-lived complex. As a reminder, the kon is the second-order rate constant of association.
